Results published in paper PMC2217413 (The Journal of General Physiology, 2004).

molecular target: calmodulin immobilized on agarose beads (CaM-agarose) (UniProt P62157 1-149); test: pull-down

binding result | Binder
binds | GST-fusion protein of TRPV1 amino acids 149–222 (domain or fragment) KDPETGKTCLLKAMLNLHNGQNDTIALLLDVARKTDSLKQFVNASYTDSYYKGQTALHIAIERRNMTLVTLLVE
binds | FVNASYTDSYYKGQTALHIAIERRNMTLVTLLVE (domain or fragment) [GST-fusion protein of TRPV1 amino acids 189–222]
binds | GST-fusion protein of TRPV1 amino acids 189–250 (domain or fragment) FVNASYTDSYYKGQTALHIAIERRNMTLVTLLVENGADVQAAANGDFFKKTKGRPGFYFGEL
